Test results reported in US20170166631A1 (published 2017).
Where two headings read alike, the source gives them in different places.

Key:
Test in all cases: ELISA
[1] = biological target: T1, HD21 (huntingtin exon 1 protein with 21 polyQ repeats after cleavage of the GST tag; aggregation reaction) (human, UniProt P42858 1-88)
T1 chain: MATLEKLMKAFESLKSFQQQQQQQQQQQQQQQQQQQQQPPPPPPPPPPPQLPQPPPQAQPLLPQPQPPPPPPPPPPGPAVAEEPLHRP

[2] = biological target: T2, HD49 (huntingtin exon 1 protein with 49 polyQ repeats after cleavage of the GST tag; aggregation reaction) (human, UniProt P42858 1-88)
T2 chain: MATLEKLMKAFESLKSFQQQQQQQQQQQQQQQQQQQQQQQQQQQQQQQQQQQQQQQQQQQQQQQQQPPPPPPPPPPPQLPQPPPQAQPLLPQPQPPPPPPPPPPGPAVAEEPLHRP

[3] = biological target: T3, GST-HttExon1Q21 (recombinant huntingtin exon 1 protein with 21 polyQ repeats fused to an N-terminal GST tag) (;human, UniProt P08515 1-218 = GST; P42858 1-88)
[4] = biological target: T1, HD21 (huntingtin exon 1 protein with 21 …)
[5] = biological target: T2, HD49 (huntingtin exon 1 protein with 49 …)
[6] = biological target: T3, GST-HttExon1Q21 (recombinant huntingtin …); remark: listed apart in the source
[7] = biological target: T1, HD21 (huntingtin exon 1 protein with 21 …)
[8] = biological target: T2, HD49 (huntingtin exon 1 protein with 49 …)
[9] = biological target: T3, GST-HttExon1Q21 (recombinant huntingtin …); remark: listed apart in the source
[10] = biological target: T1, HD21 (huntingtin exon 1 protein with 21 …)
[11] = biological target: T2, HD49 (huntingtin exon 1 protein with 49 …)
[12] = biological target: T3, GST-HttExon1Q21 (recombinant huntingtin …); remark: listed apart in the source
[13] = biological target: T1, HD21 (huntingtin exon 1 protein with 21 …)
[14] = biological target: T2, HD49 (huntingtin exon 1 protein with 49 …)
[15] = biological target: T3, GST-HttExon1Q21 (recombinant huntingtin …); remark: listed apart in the source
[16] = biological target: T1, HD21 (huntingtin exon 1 protein with 21 …)
[17] = biological target: T2, HD49 (huntingtin exon 1 protein with 49 …)
[18] = biological target: T4, BSA-coupled synthetic peptide of the P-rich domain sequence of huntingtin exon 1 (coupled to BSA)
T4 peptide: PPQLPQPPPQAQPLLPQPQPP

[19] = biological target: T3, GST-HttExon1Q21 (recombinant huntingtin …); remark: listed apart in the source
Target sequence in this assay (P08515 1-218, tags or fused parts left off): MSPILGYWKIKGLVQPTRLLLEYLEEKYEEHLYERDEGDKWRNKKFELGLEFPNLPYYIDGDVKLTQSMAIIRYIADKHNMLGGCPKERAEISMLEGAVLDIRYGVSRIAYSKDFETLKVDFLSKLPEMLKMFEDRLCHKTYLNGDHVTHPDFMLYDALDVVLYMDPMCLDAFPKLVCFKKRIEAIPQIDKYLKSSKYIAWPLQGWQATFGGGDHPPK

B1: NI-302.11H6 (antibody, V domains shown)
VH: EVQLVQSGAVMKKPGDSVRVSCRASTYSFSTYSFTWVRQVPGQGLEWMGWISAYNGHTNYVDSFQGRLTLTTDTSASTAYMELRSLRSDDTAIYYCAAVDTTYYYYGMDVWGQGTLVTVSS
VL: QTVVTQEPTFSVSPGGTVTLTCALRFGSVSSSYYPSWFQQTPGQAPRTLIYSTNTRSSGVPARFSGSILGNKAALTIAGAQANDEADYYCVLYMGSGIGVFGGGTKLTVL
- EC50 [1]: 1.22 nM
- EC50 [2]: 0.16 nM
- EC50 [3]: 0.24 nM
- EC50 [4]: 1.2 nM
- EC50 [5]: 0.2 nM
- EC50 [6]: 0.2 nM

B2: NI-302.37C12 (antibody, V domains shown)
VH: EVQLVESGGGLVQPGGSLRLSCVASALTVTNSQMTWVRRAPGRGLEWVSVIYTSGSAYYADSVKGRFTISRDNSKNTVFLQMNSLRVEDTAVYYCAKGPSAYYYGLDLWGQGTTVTVSS
VL: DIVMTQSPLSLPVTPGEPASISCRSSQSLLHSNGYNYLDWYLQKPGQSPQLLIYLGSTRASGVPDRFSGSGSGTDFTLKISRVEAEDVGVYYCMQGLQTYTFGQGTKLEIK
- EC50 [7]: 2.5 nM
- EC50 [8]: 4.9 nM
- EC50 [9]: 0.3 nM
- EC50 [4]: 2.5 nM
- EC50 [5]: 4.9 nM
- EC50 [6]: 0.33 nM

B3: NI-302.7A8 (antibody, V domains shown)
VH: EVQLVESGGGSVQPGGSLRLSCVASGFIFRNSWMTWVRQDPGKGLEWVANIKEDGSRTYYVDSVKGRFTISRDNAKNSLYLQMNSLRAEDTAVYYCARGDYNSGIYYFPGDYWGQGTLVTVSS
VL: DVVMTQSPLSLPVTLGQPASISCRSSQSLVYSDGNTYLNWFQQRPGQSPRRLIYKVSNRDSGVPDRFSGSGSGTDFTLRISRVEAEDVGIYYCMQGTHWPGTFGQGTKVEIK
- EC50 [4]: 0.4 nM
- EC50 [5]: 1.5 nM
- EC50 [6]: 0.2 nM
- EC50 [10]: 0.4 nM
- EC50 [11]: 1.5 nM
- EC50 [12]: 0.2 nM

B4: NI-302.22H9 (antibody, V domains shown)
VH: EVQLVESGGGLVHPWGSLRVSCAASGFSVSNYAITWVRQAPGKGLEYISVIYRDGRTYYGDSVRGRFTISRDDSKNTIYLQMNSLRFEDTAVYYCARAHGQYYYGVDVWGQGTTVTVSS
VL: DVVMTQSPLSLSVSPGEPASISCRSSQSLLHSNGYNYLDWYRQKPGQSPQLLIYLNSNRASGVPDRFSGSGSGTEFTLTISRVEAEDVGVYYCMQSLQTFTFGGGTKVEIK
- EC50 [7]: 11 nM
- EC50 [8]: 21 nM
- EC50 [9]: 1.6 nM
- EC50 [4]: 11 nM
- EC50 [5]: 22 nM
- EC50 [6]: 1.6 nM

B5: NI-302.15D3 (antibody, V domains shown)
VH: EVQLVESGGDLVQPGGSLRLSCAASGFTFSSYWMHWVRQAPGKGLVWVSRISNDGSSKTYADSVKGRFTISRDNAKNTLYLQMNSLRAEDTAVYYCAILGGYCSSTSCRPFDNWGQGTLVTVSS
VL: QSALTQPASVSGSPGQSITISCTGTSSDVGVYNYVSWYQQHPGKAPKLMIFDVSNRPSGISNRFSGSKSGNTASLTISGLQAEDEADYYCSSYTSSDTWVFGGGTKLTIL
- EC50 [13]: 6.4 nM
- EC50 [14]: 15 nM
- EC50 [15]: 4.2 nM
- EC50 [16]: 6.4 nM
- EC50 [17]: 15 nM
- EC50 [18]: 1.2 nM
- EC50 [19]: 4.2 nM

B6: NI-302.2A2 (antibody, V domains shown)
VH: EVQLVESGGGLVQPGGSLRLSCAASGFTFSTYWMNWVRQAPGKGLEWVANIKPDGSDKYYVDSVKGRFTISRDNAKNSLYLQMNSLRDEDTAVYYCARGDGSGWNVYWGQGTLVTVSS
VL: DIQMTQSPDSLAVSLGERATINCKSSQSLLYTSKNKDSKNYLGWYQQKPGQPPKLLIYWASTRESGVPDRFSGSGSGTDFTLTISSLQAEDVAVYYCQQYYTTPQFGGGTKVEIK
- EC50 [13]: 12.3 nM
- EC50 [14]: ~100 nM
- EC50 [15]: 10.1 nM
- EC50 [16]: 12.3 nM
- EC50 [17]: > 100 nM
- EC50 [18]: 1.4 nM
- EC50 [19]: 10.1 nM

B7: NI-302.3D8 (antibody, V domains shown)
VH: EVQLVQSGGGLVQPGGSLRLSCEASGFIFKTYAMSWVRQLPGRGLEWVSAISATGGSTFYAESVKGRLTISRDTAKNTVYLQMNNLRAEDTAMYYCAKGSTAVYLFDSWGQGTLVTVSS
VL: DIQMTQSPSSLSASVGDRVTLTCRASQDIRNFLAWIQQKPGKPPKSLIYAASTLQSGVPSRFSGSGSGTDFTLTISSLHPEDFATYYCQQFYNYPPTFGQGTKVEIK
- EC50 [1]: 0.02 nM
- EC50 [2]: 0.03 nM
- EC50 [3]: 0.05 nM
- EC50 [4]: 0.02 nM
- EC50 [5]: 0.03 nM
- EC50 [6]: 0.05 nM

B8: NI-302.44D7 (antibody, V domains shown)
VH: EVQLVQSGGGLVQPGGSLRLSCAASGFTFSSYAMSWVRQAPGKGLEWVSGIGYSDTSTYYADSVKGRFTVSRDISKNTLYLQMNSLRAEDTAVYYCAKGTRDYYGMDVWGQGTMVTVSS
VL: QTVVTQEPSFSVSPGGTVTLTCGLSSGSVSTSYYPSWYQQTPGRAPRTLIYSTNTRSSGVPDRFSGSILGNKAALTITGAQADDESDYYCVLFMGSGIGVFGGGTRLTVL
- EC50 [7]: 11 nM
- EC50 [8]: 10 nM
- EC50 [9]: 5.4 nM
- EC50 [4]: 11 nM
- EC50 [5]: 10 nM
- EC50 [6]: 5.4 nM

B9: NI-302.71F6 (antibody, V domains shown)
VH: QVQLQQWGAGLLKPSETLSLTCAVYGGSLSGYYWSWIRQPPGKGLEWIGEVNHSGGTNLNSSLKSRVIISVDKSKKQFSLKLSSVTAADTAMYFCARGYSYDPKYYFDSWSQGTLVTVSS
VL: QSALTQPASVSGSPGQAITISCTGTSSDIGSYDFVSWYQQDPGKAPKVIIYGVNKRPSGVSNRFSGSKSGNTASLTISGLQADDEADYYCCSYAGSTTWVFGGGTKLTVL
- EC50 [1]: 7.6 nM
- EC50 [2]: 4.4 nM
- EC50 [3]: 3 nM
- EC50 [4]: 7.6 nM
- EC50 [5]: 4.4 nM
- EC50 [6]: 3 nM

B10: NI-302.78H12 (antibody, V domains shown)
VH: QVQLQESGPGLVKPSETLSLTCLVSSYSISNGYYWGWIRQPPGKGLEWIGSIYHNGNTYYNPSLKSRVIISVDTSKNQFSLKLRSVTAADTAVYYCAMPSATYYYGSGTQFHAFDVWGQGTTVTVSS
VL: QSALTQPRSVSGSPGQSVTISCTGTSRDVGNYNYVSWYQQHPGEVPKLIIYDVSERPSGVPDRFSGSKSGNTASLTISGLQAEDEADYYCCSYAGSYTFEVFGGGTKLTVL
- EC50 [4]: 1.1 nM
- EC50 [5]: 1.6 nM
- EC50 [6]: 0.5 nM
- EC50 [10]: 1.1 nM
- EC50 [11]: 1.6 nM
- EC50 [12]: 0.5 nM

B11: NI-302.46C9 (antibody, V domains shown)
VH: QVQLQESGPGLVKPSQTLSLTCTVSGASVSSGAYYWSWIRQPAGKRLEWIGRVYPTWSTNYNPSLESRVTISLDTSNNQFSLKLTSLTAADTAVYYCAREAPGDYDAAPLAYWGQGTLVTVSS
VL: DIQMTQSPSSLSASVGDRVTITCRASQYISHYLNWYRQKPGKAPQLVIYAASSLQSEVPSRFSGSGSGPEFTLTISSLQPEDFATYYCQQSYTTPRTFGQGTKLEIK
- EC50 [4]: 0.3 nM
- EC50 [5]: 0.05 nM
- EC50 [6]: 0.07 nM
- EC50 [13]: 0.3 nM
- EC50 [14]: ~0.05 nM
- EC50 [15]: ~0.07 nM
